11 proteins from US20090123572 can be followed below.

In data set [1] the target is T1, recombinant squamous cell carcinoma antigen 1 (SCCA-1), P29508.
T1 chain: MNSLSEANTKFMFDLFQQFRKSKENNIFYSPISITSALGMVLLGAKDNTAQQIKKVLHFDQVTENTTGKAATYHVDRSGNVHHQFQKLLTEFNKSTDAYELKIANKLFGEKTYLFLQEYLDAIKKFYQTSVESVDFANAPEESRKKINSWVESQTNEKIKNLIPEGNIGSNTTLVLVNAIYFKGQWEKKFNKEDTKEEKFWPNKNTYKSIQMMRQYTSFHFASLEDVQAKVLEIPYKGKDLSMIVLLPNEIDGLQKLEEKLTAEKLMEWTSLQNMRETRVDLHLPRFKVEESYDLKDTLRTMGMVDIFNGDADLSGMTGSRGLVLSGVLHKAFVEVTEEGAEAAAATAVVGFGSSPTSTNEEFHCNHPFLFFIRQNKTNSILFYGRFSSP

In data set [2] the target is T2, recombinant ICAD protein, O00273.
T2 chain: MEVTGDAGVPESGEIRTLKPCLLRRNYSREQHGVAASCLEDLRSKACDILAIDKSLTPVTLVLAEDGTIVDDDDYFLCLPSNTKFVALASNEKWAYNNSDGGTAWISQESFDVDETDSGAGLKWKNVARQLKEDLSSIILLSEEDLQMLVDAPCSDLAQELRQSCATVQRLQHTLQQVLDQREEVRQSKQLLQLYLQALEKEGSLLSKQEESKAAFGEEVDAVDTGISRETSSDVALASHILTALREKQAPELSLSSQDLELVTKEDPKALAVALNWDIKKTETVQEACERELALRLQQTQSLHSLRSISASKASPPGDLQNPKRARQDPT

B1: recombinant caspase-2 (protein)
chain: GPVCLQVKPCTPEFYQTHFQLAYRLQSRPRGLALVLSNVHFTGEKELEFRSGGDVDHSTLVTLFKLLGYDVHVLCDQTAQEMQEKLQNFAQLPAHRVTDSCIVALLSHGVEGAIYGVDGKLLQLQEVFQLFDNANCPSLQNKPKMFFIQACRGDETDRGVDQQDGKNHAGSPGCEESDAGKEKLPKMRLPTRSDMICGYACLKGTAAMRNTKRGSWYIEALAQVFSERACDMHVADMLVKVNALIKDREGYAPGTEFHRCKEMSEYCSTLCRHLYLFPGHPPT
Consider B1, for which the “enzyme activity of recombinant caspase incubated with SCCA-1 (synthetic caspase substrates)” value (“enzyme activity” for short) in data set [1] was “None of the caspase members (1 to 10) were affected with respect to enzyme activity when recombinant caspase was incubated with SCCA-1”.

B2: recombinant caspase-7 (protein)
chain: AKPDRSSFVPSLFSKKKKNVTMRSIKTTRDRVPTYQYNMNFEKLGKCIIINNKNFDKVTGMGVRNGTDKDAEALFKCFRSLGFDVIVYNDCSCAKMQDLLKKASEEDHTNAACFACILLSHGEENVIYGKDGVTPIKDLTAHFRGDRCKTLLEKPKLFFIQACRGTELDDGIQADSGPINDTDANPRYKIPVEADFLFAYSTVPGYYSWRSPGRGSWFVQALCSILEEHGKDLEIMQILTRVNDRVARHFESQSDDPHFHEKKQIPCVVSMLTKELYFSQ
For B2, the “enzyme activity” value in data set [1] is listed as “None of the caspase members (1 to 10) were affected with respect to enzyme activity when recombinant caspase was incubated with SCCA-1”.

B3: recombinant caspase-10 (protein)
chain: VKTFLEALPQESWQNKHAGSNGNRATNGAPSLVSRGMQGASANTLNSETSTKRAAVYRMNRNHRGLCVIVNNHSFTSLKDRQGTHKDAEILSHVFQWLGFTVHIHNNVTKVEMEMVLQKQKCNPAHADGDCFVFCILTHGRFGAVYSSDEALIPIREIMSHFTALQCPRLAEKPKLFFIQACQGEEIQPSVSIEADALNPEQAPTSLQDSIPAEADFLLGLATVPGYVSFRHVEEGSWYIQSLCNHLKKLVPRMLKFLEKTMEIRGRKRTVWGAKQISATSLPTAISAQTPRPPMRRWSSVS
Turning to B3, the “enzyme activity” value in data set [1] is reported as “None of the caspase members (1 to 10) were affected with respect to enzyme activity when recombinant caspase was incubated with SCCA-1”.

B4: recombinant caspase-4 (protein)
chain: QISPNKKAHPNMEAGPPESGESTDALKLCPHEEFLRLCKERAEEIYPIKERNNRTRLALIICNTEFDHLPPRNGADFDITGMKELLEGLDYSVDVEENLTARDMESALRAFATRPEHKSSDSTFLVLMSHGILEGICGTVHDEKKPDVLLYDTIFQIFNNRNCLSLKDKPKVIIVQACRGANRGELWVRDSPASLEVASSQSSENLEEDAVYKTHVEKDFIAFCSSTPHNVSWRDSTMGSIFITQLITCFQKYSWCCHLEEVFRKVQQSFETPRAKAQMPTIERLSMTRYFYLFPGN
Regarding B4, the “enzyme activity” value in data set [1] is listed as “None of the caspase members (1 to 10) were affected with respect to enzyme activity when recombinant caspase was incubated with SCCA-1”.

B5: purified caspase-14 from human cornified cells (heterodimer of 17 KDa large subunit and 11 KDa small subunit) (protein)
chain 1: SLEEEKYDMSGARLALILCVTKAREGSEEDLDALEHMFRQLRFESTMKRDPTAEQFQEELEKFQQAIDSREDPVSCAFVVLMAHGREGFLKGEDGEMVKLENLFEALNNKNCQALRAKPKVYIIQACRGEQRDPGETVGGD
chain 2: KDSPQTIPTYTDALHVYSTVEGYIAYRHDQKGSCFIQTLVDVFTKRKGHILELLTEVTRRMAEAELVQEGKARKTNPEIQSTLRKRLYLQ
With B5, in data set [2], the “ICAD cleavage products (Western blot with FL331 antibody)” value was “Cleavage products were observed at 33 and 27 KDa”; the “decomposition of recombinant ICAD in the presence of kosmotropic salt (Western blot with anti-ICAD IgG)” value was “since the amount of intact ICAD protein decreases and two major decomposition products increase in the presence of kosmotropic salt, purified caspase-14 demonstrated limited decomposing action on ICAD”; the “fragments formed from ICAD; sequence analysis of the cleavage sites” value is “caspase-14 formed fragments resembling 12 KDa and 35 KDa from ICAD. Sequence analysis indicated identical cleavage sites”; the “hydrolysis of recombinant ICAD in an ordinary caspase assay buffer (Western blot with anti-ICAD IgG)” value was “purified caspase-14 did not demonstrate any hydrolysis activity on ICAD”.

B6: recombinant caspase-1 (protein)
chain: NPAMPTSSGSEGNVKLCSLEEAQRIWKQKSAEIYPIMDKSSRTRLALIICNEEFDSIPRRTGAEVDITGMTMLLQNLGYSVDVKKNLTASDMTTELEAFAHRPEHKTSDSTFLVFMSHGIREGICGKKHSEQVPDILQLNAIFNMLNTKNCPSLKDKPKVIIIQACRGDSPGVVWFKDSVGVSGNLSLPTTEEFEDDAIKKAHIEKDFIAFCSSTPDNVSWRHPTMGSVFIGRLIEHMQEYACSCDVEEIFRKVRFSFEQPDGRAQMPTTERVTLTRCFYLFPGH
For B6, the “enzyme activity” value in data set [1] was “None of the caspase members (1 to 10) were affected with respect to enzyme activity when recombinant caspase was incubated with SCCA-1”.

B7: recombinant caspase-3 (protein)
chain: SGISLDNSYKMDYPEMGLCIIINNKNFHKSTGMTSRSGTDVDAANLRETFRNLKYEVRNKNDLTREEIVELMRDVSKEDHSKRSSFVCVLLSHGEEGIIFGTNGPVDLKKITNFFRGDRCRSLTGKPKLFIIQACRGTELDCGIETDSGVDDDMACHKIPVEADFLYAYSTAPGYYSWRNSKDGSWFIQSLCAMLKQYADKLEFMHILTRVNRKVATEFESFSFDATFHAKKQIPCIVSMLTKELYFYH
For B7, in data set [1], the “caspase-3 activity on the synthetic substrate DEVD-MCA or the natural substrate ICAD” value is on record as “SCCA-1 did not inhibit caspase-3 activity using the synthetic substrate DEVD-MCA or the natural substrate ICAD” and the “enzyme activity” value is given as “None of the caspase members (1 to 10) were affected with respect to enzyme activity when recombinant caspase was incubated with SCCA-1”.

B8: recombinant caspase-9 (protein)
chain: GALESLRGNADLAYILSMEPCGHCLIINNVNFCRESGLRTRTGSNIDCEKLRRRFSSLHFMVEVKGDLTAKKMVLALLELAQQDHGALDCCVVVILSHGCQASHLQFPGAVYGTDGCPVSVEKIVNIFNGTSCPSLGGKPKLFFIQACGGEQKDHGFEVASTSPEDESPGSNPEPDATPFQEGLRTFDQLDAISSLPTPSDIFVSYSTFPGFVSWRDPKSGSWYVETLDDIFEQWAHSEDLQSLLLRVANAVSVKGIYKQMPGCFNFLRKKLFFKTS
For the protein B8, in data set [1], the “enzyme activity” value is on record as “None of the caspase members (1 to 10) were affected with respect to enzyme activity when recombinant caspase was incubated with SCCA-1”.

B9: recombinant caspase-8 (protein)
chain: SESQTLDKVYQMKSKPRGYCLIINNHNFAKAREKVPKLHSIRDRNGTHLDAGALTTTFEELHFEIKPHDDCTVEQIYEILKIYQLMDHSNMDCFICCILSHGDKGIIYGTDGQEAPIYELTSQFTGLKCPSLAGKPKVFFIQACQGDNYQKGIPVETDSEEQPYLEMDLSSPQTRYIPDEADFLLGMATVNNCVSYRNPAEGTWYIQSLCQSLRERCPRGDDILTILTEVNYEVSNKDDKKNMGKQMPQPTFTLRKKLVFPSD
B9: the “enzyme activity” value in data set [1] is “None of the caspase members (1 to 10) were affected with respect to enzyme activity when recombinant caspase was incubated with SCCA-1”.

B10: recombinant caspase-6 (protein)
chain: AFYKREMFDPAEKYKMDHRRRGIALIFNHERFFWHLTLPERRGTCADRDNLTRRFSDLGFEVKCFNDLKAEELLLKIHEVSTVSHADADCFVCVFLSHGEGNHIYAYDAKIEIQTLTGLFKGDKCHSLVGKPKIFIIQACRGNQHDVPVIPLDVVDNQTEKLDTNITEVDAASVYTLPAGADFLMCYSVAEGYYSHRETVNGSWYIQDLCEMLGKYGSSLEFTELLTLVNRKVSQRRVDFCKDPSAIGKKQVPCFASMLTKKLHFFPKSN
For the protein B10, in data set [1], the “enzyme activity” value is listed as “None of the caspase members (1 to 10) were affected with respect to enzyme activity when recombinant caspase was incubated with SCCA-1”.

B11: recombinant caspase-5 (protein)
chain: DQKITSVKPLLQIEAGPPESAESTNILKLCPREEFLRLCKKNHDEIYPIKKREDRRRLALIICNTKFDHLPARNGAHYDIVGMKRLLQGLGYTVVDEKNLTARDMESVLRAFAARPEHKSSDSTFLVLMSHGILEGICGTAHKKKKPDVLLYDTIFQIFNNRNCLSLKDKPKVIIVQACRGEKHGELWVRDSPASLALISSQSSENLEADSVCKIHEEKDFIAFCSSTPHNVSWRDRTRGSIFITELITCFQKYSCCCHLMEIFRKVQKSFEVPQAKAQMPTIERATLTRDFYLFPGN
For the protein B11, the “enzyme activity” value in data set [1] is recorded as “None of the caspase members (1 to 10) were affected with respect to enzyme activity when recombinant caspase was incubated with SCCA-1”.
